Target: mTFP1
Experiment: SDS-PAGE with in-gel fluorescence; whole-cell extract of C. reinhardtii transformants in SDS sample buffer without β-mercaptoethanol, 40°C for 5 min; 15% resolving gel; gel washed in water to refold the fluorescent proteins; imaged with bandpass filters

mTFP1
stoichiometry N: 2
